Test results as given in ChEMBL document CHEMBL1212771, “BEL-2, an extended-spectrum beta-lactamase with increased activity toward expanded-spectrum cephalosporins in Pseudomonas aeruginosa” (Antimicrob Agents Chemother, 2010).
In brackets after ≈: the same amount, converted by molar mass.

Columns and labels:
Pseudomonas aeruginosa [1] = experiment: Antimicrobial activity against Pseudomonas aeruginosa 51170 expressing beta-lactamase BEL-1 by solid agar dilution method; assay type: functional
Escherichia coli [2] = experiment: Antimicrobial activity against Escherichia coli TOP10 expressing recombinant beta-lactamase BEL-1 by solid agar dilution method; assay type: functional
Escherichia coli [3] = experiment: Antimicrobial activity against Escherichia coli TOP10 expressing recombinant beta-lactamase BEL-2 by solid agar dilution method; assay type: functional
Escherichia coli [4] = experiment: Antimicrobial activity against Escherichia coli TOP10 by solid agar dilution method; assay type: functional
Pseudomonas aeruginosa [5] = experiment: Antimicrobial activity against Pseudomonas aeruginosa 531 expressing beta-lactamase BEL-2 by solid agar dilution method; assay type: functional
Pseudomonas aeruginosa [6] = experiment: Ratio of Km for Pseudomonas aeruginosa 51170 beta-lactamase BEL-1 to Km for Pseudomonas aeruginosa 531 beta-lactamase BEL-2
[7] = substrate: CC(C)(O/N=C(\C(=O)N[C@@H]1C(=O)N2C(C(=O)[O-])=C(C[n+]3ccccc3)CS[C@H]12)c1csc(N)n1)C(=O)O; experiment: (§1) Ratio of Kcat to Km for Pseudomonas aeruginosa 531 beta-lactamase BEL-2
[8] = substrate: CO/N=C(\C(=O)N[C@@H]1C(=O)N2C(C(=O)O)=C(COC(C)=O)CS[C@H]12)c1csc(N)n1; experiment: as §1
[9] = substrate: CC1(C)S[C@@H]2[C@H](NC(=O)Cc3ccccc3)C(=O)N2[C@H]1C(=O)O; experiment: as §1
[10] = substrate: O=C(Cc1cccs1)N[C@@H]1C(=O)N2C(C(=O)[O-])=C(C[n+]3ccccc3)CS[C@H]12; experiment: as §1
[11] = substrate: CCN1CCN(C(=O)N[C@@H](C(=O)N[C@@H]2C(=O)N3[C@@H]2SC(C)(C)[C@@H]3C(=O)O)c2ccccc2)C(=O)C1=O; experiment: as §1
[12] = substrate: CO/N=C(\C(=O)N[C@@H]1C(=O)N2C(C(=O)O)=C(COC(N)=O)CS[C@H]12)c1ccco1; experiment: as §1
[13] = substrate: CO/N=C(\C(=O)N[C@@H]1C(=O)N2C(C(=O)[O-])=C(C[N+]3(C)CCCC3)CS[C@H]12)c1csc(N)n1; experiment: as §1
[14] = substrate: CC(=O)OCC1=C(C(=O)O)N2C(=O)[C@@H](NC(=O)Cc3cccs3)[C@H]2SC1; experiment: as §1
[15] = substrate: C[C@H]1[C@H](NC(=O)/C(=N\OC(C)(C)C(=O)O)c2csc(N)n2)C(=O)N1S(=O)(=O)O; experiment: as §1
[16] = substrate: CO[C@@]1(NC(=O)Cc2cccs2)C(=O)N2C(C(=O)O)=C(COC(N)=O)CS[C@@H]21; experiment: (§2) Activity at Pseudomonas aeruginosa 531 beta-lactamase BEL-2
[17] = substrate: CC(C)(O/N=C(\C(=O)N[C@@H]1C(=O)N2C(C(=O)[O-])=C(C[n+]3ccccc3)CS[C@H]12)c1csc(N)n1)C(=O)O; experiment: as §2
[18] = substrate: C[C@@H](O)[C@H]1C(=O)N2C(C(=O)O)=C(SCCNC=N)C[C@H]12; experiment: as §2
[19] = substrate: CO/N=C(\C(=O)N[C@@H]1C(=O)N2C(C(=O)O)=C(COC(C)=O)CS[C@H]12)c1csc(N)n1; experiment: as §2
[20] = substrate: CC1(C)S[C@@H]2[C@H](NC(=O)Cc3ccccc3)C(=O)N2[C@H]1C(=O)O; experiment: as §2
[21] = substrate: O=C(Cc1cccs1)N[C@@H]1C(=O)N2C(C(=O)[O-])=C(C[n+]3ccccc3)CS[C@H]12; experiment: as §2
[22] = substrate: CCN1CCN(C(=O)N[C@@H](C(=O)N[C@@H]2C(=O)N3[C@@H]2SC(C)(C)[C@@H]3C(=O)O)c2ccccc2)C(=O)C1=O; experiment: as §2
[23] = substrate: CO/N=C(\C(=O)N[C@@H]1C(=O)N2C(C(=O)O)=C(COC(N)=O)CS[C@H]12)c1ccco1; experiment: as §2
[24] = substrate: CO/N=C(\C(=O)N[C@@H]1C(=O)N2C(C(=O)[O-])=C(C[N+]3(C)CCCC3)CS[C@H]12)c1csc(N)n1; experiment: as §2
[25] = substrate: CC(=O)OCC1=C(C(=O)O)N2C(=O)[C@@H](NC(=O)Cc3cccs3)[C@H]2SC1; experiment: as §2
[26] = substrate: C[C@H]1[C@H](NC(=O)/C(=N\OC(C)(C)C(=O)O)c2csc(N)n2)C(=O)N1S(=O)(=O)O; experiment: as §2
[27] = substrate: CO[C@@]1(NC(=O)Cc2cccs2)C(=O)N2C(C(=O)O)=C(COC(N)=O)CS[C@@H]21; experiment: (§3) Activity at Pseudomonas aeruginosa 51170 beta-lactamase BEL-1
[28] = substrate: CC(C)(O/N=C(\C(=O)N[C@@H]1C(=O)N2C(C(=O)[O-])=C(C[n+]3ccccc3)CS[C@H]12)c1csc(N)n1)C(=O)O; experiment: as §3
[29] = substrate: C[C@@H](O)[C@H]1C(=O)N2C(C(=O)O)=C(SCCNC=N)C[C@H]12; experiment: as §3
[30] = substrate: CO/N=C(\C(=O)N[C@@H]1C(=O)N2C(C(=O)O)=C(COC(C)=O)CS[C@H]12)c1csc(N)n1; experiment: as §3
[31] = substrate: CC1(C)S[C@@H]2[C@H](NC(=O)Cc3ccccc3)C(=O)N2[C@H]1C(=O)O; experiment: as §3
[32] = substrate: O=C(Cc1cccs1)N[C@@H]1C(=O)N2C(C(=O)[O-])=C(C[n+]3ccccc3)CS[C@H]12; experiment: as §3
[33] = substrate: CCN1CCN(C(=O)N[C@@H](C(=O)N[C@@H]2C(=O)N3[C@@H]2SC(C)(C)[C@@H]3C(=O)O)c2ccccc2)C(=O)C1=O; experiment: as §3
[34] = substrate: CO/N=C(\C(=O)N[C@@H]1C(=O)N2C(C(=O)O)=C(COC(N)=O)CS[C@H]12)c1ccco1; experiment: as §3
[35] = substrate: CO/N=C(\C(=O)N[C@@H]1C(=O)N2C(C(=O)[O-])=C(C[N+]3(C)CCCC3)CS[C@H]12)c1csc(N)n1; experiment: as §3
[36] = substrate: CC(=O)OCC1=C(C(=O)O)N2C(=O)[C@@H](NC(=O)Cc3cccs3)[C@H]2SC1; experiment: as §3
[37] = substrate: C[C@H]1[C@H](NC(=O)/C(=N\OC(C)(C)C(=O)O)c2csc(N)n2)C(=O)N1S(=O)(=O)O; experiment: as §3
[38] = substrate: CO/N=C(\C(=O)N[C@@H]1C(=O)N2C(C(=O)O)=C(COC(C)=O)CS[C@H]12)c1csc(N)n1; experiment: (§4) Ratio of Kcat to Km for Pseudomonas aeruginosa 51170 beta-lactamase BEL-1
[39] = substrate: CC1(C)S[C@@H]2[C@H](NC(=O)Cc3ccccc3)C(=O)N2[C@H]1C(=O)O; experiment: as §4
[40] = substrate: O=C(Cc1cccs1)N[C@@H]1C(=O)N2C(C(=O)[O-])=C(C[n+]3ccccc3)CS[C@H]12; experiment: as §4
[41] = substrate: CCN1CCN(C(=O)N[C@@H](C(=O)N[C@@H]2C(=O)N3[C@@H]2SC(C)(C)[C@@H]3C(=O)O)c2ccccc2)C(=O)C1=O; experiment: as §4
[42] = substrate: CO/N=C(\C(=O)N[C@@H]1C(=O)N2C(C(=O)O)=C(COC(N)=O)CS[C@H]12)c1ccco1; experiment: as §4
[43] = substrate: CO/N=C(\C(=O)N[C@@H]1C(=O)N2C(C(=O)[O-])=C(C[N+]3(C)CCCC3)CS[C@H]12)c1csc(N)n1; experiment: as §4
[44] = substrate: CC(=O)OCC1=C(C(=O)O)N2C(=O)[C@@H](NC(=O)Cc3cccs3)[C@H]2SC1; experiment: as §4
[45] = substrate: C[C@H]1[C@H](NC(=O)/C(=N\OC(C)(C)C(=O)O)c2csc(N)n2)C(=O)N1S(=O)(=O)O; experiment: as §4

## CO[C@@]1(NC(=O)Cc2cccs2)C(=O)N2C(C(=O)O)=C(COC(N)=O)CS[C@@H]21 [CEFOXITIN]
Pseudomonas aeruginosa [1]
  MIC: 512 µg/mL (≈ 1200 µM)
Escherichia coli [2]
  MIC: 2 µg/mL
Escherichia coli [3]
  MIC: 2 µg/mL
Escherichia coli [4]
  MIC: 2 µg/mL (≈ 4.68 µM)
Pseudomonas aeruginosa [5]
  MIC: 512 µg/mL (≈ 1200 µM)

## CO/N=C(\C(=O)N[C@@H]1C(=O)N2C(C(=O)O)=C(COC(N)=O)CS[C@H]12)c1ccco1 [CEFUROXIME]
Pseudomonas aeruginosa [1]
  MIC: > 512 µg/mL
Escherichia coli [2]
  MIC: 128 µg/mL
Pseudomonas aeruginosa [6]
  Ratio: 300
Escherichia coli [3]
  MIC: 32 µg/mL
Escherichia coli [4]
  MIC: 2 µg/mL (≈ 4.71 µM)
Pseudomonas aeruginosa [5]
  MIC: > 512 µg/mL

## CCN1CCN(C(=O)N[C@@H](C(=O)N[C@@H]2C(=O)N3[C@@H]2SC(C)(C)[C@@H]3C(=O)O)c2ccccc2)C(=O)C1=O [PIPERACILLIN]
Pseudomonas aeruginosa [1]
  MIC: 16 µg/mL (≈ 30.9 µM)
Escherichia coli [2]
  MIC: 128 µg/mL
Escherichia coli [3]
  MIC: 32 µg/mL
Escherichia coli [4]
  MIC: 1 µg/mL (≈ 1.93 µM)
Pseudomonas aeruginosa [5]
  MIC: 16 µg/mL (≈ 30.9 µM)

## CC1(C)S[C@@H]2[C@H](NC(=O)[C@H](N)c3ccc(O)cc3)C(=O)N2[C@H]1C(=O)O [AMOXICILLIN]
Pseudomonas aeruginosa [1]
  MIC: > 512 µg/mL
Escherichia coli [2]
  MIC: > 512 µg/mL
Escherichia coli [3]
  MIC: > 512 µg/mL
Escherichia coli [4]
  MIC: 4 µg/mL (≈ 10.9 µM)
Pseudomonas aeruginosa [5]
  MIC: > 512 µg/mL

## C[C@@H](O)[C@H]1C(=O)N2C(C(=O)O)=C(SCCNC=N)C[C@H]12 [IMIPENEM ANHYDROUS]
Pseudomonas aeruginosa [5]
  MIC: 1 µg/mL (≈ 3.34 µM)

B1: Beta-lactamase (Pseudomonas aeruginosa), D2SSQ3 (protein)
chain: MKLLLYPLLLFLVIPAFAQADFEHAISDLEAHNQAKIGVALVSENGNLIQGYRANERFAMCSTFKLPLAALVLSRIDAGEENPERKLHYDSAFLEEYAPAAKRYVATGYMTVTEAIQSALQLSDNAAANLLLKEVGGPPLLTKYFRSLGDKVSRFDRIEPTLNTNTPGDERDTTTPMSMAQTVSKLIFGDTLTYKSKGQLRRLLIGNQTGDKTIRAGLPDSWVTGDKTGSCANGGRNDVAFFITTAGKKYVLSVYTNAPELQGEERALLIASVAKLARQYVVH
[7]
  kcat/Km: 47000 M⁻¹ s⁻¹
[8]
  kcat/Km: 290000 M⁻¹ s⁻¹
[9]
  kcat/Km: 300000 M⁻¹ s⁻¹
[10]
  kcat/Km: 150000 M⁻¹ s⁻¹
[11]
  kcat/Km: 300000 M⁻¹ s⁻¹
[12]
  kcat/Km: 73000 M⁻¹ s⁻¹
[13]
  kcat/Km: 10000 M⁻¹ s⁻¹
[14]
  kcat/Km: 2.2e+06 M⁻¹ s⁻¹
[15]
  kcat/Km: 280000 M⁻¹ s⁻¹
[16]
  kcat: < 0.01 s⁻¹
[17]
  Km: 0.64 µM
  kcat: 0.03 s⁻¹
[18]
  kcat: < 0.01 s⁻¹
[19]
  Km: 0.45 µM
  kcat: 0.13 s⁻¹
[20]
  Km: 4 µM
  kcat: 1.2 s⁻¹
[21]
  Km: 8 µM
  kcat: 1.2 s⁻¹
[22]
  Km: 0.3 µM
  kcat: 1.1 s⁻¹
[23]
  Km: 12 µM
  kcat: 0.88 s⁻¹
[24]
  Km: 0.3 µM
  kcat: 0.003 s⁻¹
[25]
  Km: 2 µM
  kcat: 4.3 s⁻¹
[26]
  Km: 0.36 µM
  kcat: 0.1 s⁻¹

B2: Beta-lactamase bla(BEL1) (Pseudomonas aeruginosa), Q3SAW3 (protein)
chain: MKLLLYPLLLFLVIPAFAQADFEHAISDLEAHNQAKIGVALVSENGNLIQGYRANERFAMCSTFKLPLAALVLSRIDAGEENPERKLHYDSAFLEEYAPAAKRYVATGYMTVTEAIQSALQLSDNAAANLLLKEVGGPPLLTKYFRSLGDKVSRLDRIEPTLNTNTPGDERDTTTPMSMAQTVSKLIFGDTLTYKSKGQLRRLLIGNQTGDKTIRAGLPDSWVTGDKTGSCANGGRNDVAFFITTAGKKYVLSVYTNAPELQGEERALLIASVAKLARQYVVH
[27]
  kcat: < 0.01 s⁻¹
[28]
  Km: > 700 µM
  kcat: > 1.5 s⁻¹
[29]
  kcat: < 0.01 s⁻¹
[30]
  Km: 250 µM
  kcat: 30 s⁻¹
[31]
  Km: 20 µM
  kcat: 3 s⁻¹
[32]
  Km: 130 µM
  kcat: 30 s⁻¹
[33]
  Km: 15 µM
  kcat: 2 s⁻¹
[34]
  Km: 40 µM
  kcat: 10 s⁻¹
[35]
  Km: 150 µM
  kcat: 1 s⁻¹
[36]
  Km: 280 µM
  kcat: 150 s⁻¹
[37]
  Km: 100 µM
  kcat: 10 s⁻¹
[38]
  kcat/Km: 250000 M⁻¹ s⁻¹
[39]
  kcat/Km: 150000 M⁻¹ s⁻¹
[40]
  kcat/Km: 230000 M⁻¹ s⁻¹
[41]
  kcat/Km: 130000 M⁻¹ s⁻¹
[42]
  kcat/Km: 250000 M⁻¹ s⁻¹
[43]
  kcat/Km: 7000 M⁻¹ s⁻¹
[44]
  kcat/Km: 540000 M⁻¹ s⁻¹
[45]
  kcat/Km: 100000 M⁻¹ s⁻¹
